In patent US20180215833A1 (published 2018):
Values belong to the binder of their own block, whether it stands above or below them.

Assays:
[1] = biological target: T1, LS1 (aa1-98) (Llama glama; human, UniProt P08581 25-932); test: ELISA, mAb immobilised, c-Met chimera titrated (EC50 of the chimera)
T1 construct: Ranges count on mature human c-Met
T1 chain: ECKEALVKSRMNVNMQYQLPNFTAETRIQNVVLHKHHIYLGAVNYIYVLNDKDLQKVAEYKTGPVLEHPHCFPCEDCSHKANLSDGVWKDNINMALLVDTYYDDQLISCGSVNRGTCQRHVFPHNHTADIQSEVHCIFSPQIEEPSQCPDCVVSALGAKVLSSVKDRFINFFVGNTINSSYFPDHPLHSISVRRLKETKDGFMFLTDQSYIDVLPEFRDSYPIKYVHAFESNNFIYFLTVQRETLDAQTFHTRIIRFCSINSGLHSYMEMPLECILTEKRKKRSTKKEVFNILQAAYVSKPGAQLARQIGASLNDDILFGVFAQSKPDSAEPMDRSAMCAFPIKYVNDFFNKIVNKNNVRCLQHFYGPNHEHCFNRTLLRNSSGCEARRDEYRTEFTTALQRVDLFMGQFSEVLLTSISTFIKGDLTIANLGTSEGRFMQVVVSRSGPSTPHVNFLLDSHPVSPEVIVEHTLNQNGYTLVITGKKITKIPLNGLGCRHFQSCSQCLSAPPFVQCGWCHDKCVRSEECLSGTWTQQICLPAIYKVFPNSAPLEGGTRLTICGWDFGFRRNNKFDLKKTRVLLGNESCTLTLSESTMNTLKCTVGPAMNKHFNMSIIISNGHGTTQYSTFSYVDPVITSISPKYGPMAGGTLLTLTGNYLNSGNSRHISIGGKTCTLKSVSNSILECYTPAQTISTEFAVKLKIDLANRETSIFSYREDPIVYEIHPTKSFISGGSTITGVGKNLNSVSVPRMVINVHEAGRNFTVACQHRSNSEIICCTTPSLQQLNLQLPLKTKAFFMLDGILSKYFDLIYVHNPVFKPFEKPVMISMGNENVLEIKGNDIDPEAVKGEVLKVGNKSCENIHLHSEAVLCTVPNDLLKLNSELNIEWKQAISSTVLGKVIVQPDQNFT
From the text: An ELISA was run to investigate the binding of the mAbs to the different chimeras.

[2] = biological target: T2, human/llama-IPT chimeric c-Met ECD (human; Llama glama, UniProt P08581 25-932); test: ELISA, 200 ng immobilised c-Met protein, mAb titrated
T2 construct: ranges stand under form; also called human/llama IPT1-4; construct with the human SEMA-PSI
T2 chain: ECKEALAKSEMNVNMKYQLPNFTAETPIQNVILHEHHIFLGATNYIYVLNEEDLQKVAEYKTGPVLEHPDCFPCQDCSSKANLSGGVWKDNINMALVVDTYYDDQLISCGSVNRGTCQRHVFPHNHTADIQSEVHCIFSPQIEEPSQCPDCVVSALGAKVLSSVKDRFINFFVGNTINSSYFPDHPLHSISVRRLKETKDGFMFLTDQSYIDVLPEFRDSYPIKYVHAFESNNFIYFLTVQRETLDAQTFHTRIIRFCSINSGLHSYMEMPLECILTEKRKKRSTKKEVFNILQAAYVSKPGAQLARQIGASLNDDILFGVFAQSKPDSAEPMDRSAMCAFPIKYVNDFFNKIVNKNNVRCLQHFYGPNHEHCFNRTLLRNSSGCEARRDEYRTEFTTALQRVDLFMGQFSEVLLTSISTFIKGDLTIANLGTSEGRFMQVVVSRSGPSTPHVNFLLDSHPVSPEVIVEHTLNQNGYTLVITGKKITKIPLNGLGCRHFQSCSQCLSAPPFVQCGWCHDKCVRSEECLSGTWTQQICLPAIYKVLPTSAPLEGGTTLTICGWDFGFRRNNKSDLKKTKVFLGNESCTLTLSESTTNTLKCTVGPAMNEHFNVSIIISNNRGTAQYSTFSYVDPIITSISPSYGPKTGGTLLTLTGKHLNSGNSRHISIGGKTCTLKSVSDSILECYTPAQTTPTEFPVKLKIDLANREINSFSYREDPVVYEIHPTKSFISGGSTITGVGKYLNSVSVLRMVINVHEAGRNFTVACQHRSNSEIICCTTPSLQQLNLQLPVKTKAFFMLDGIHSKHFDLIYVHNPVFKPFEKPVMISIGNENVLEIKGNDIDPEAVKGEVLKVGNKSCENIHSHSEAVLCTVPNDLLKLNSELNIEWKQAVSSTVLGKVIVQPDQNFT

[3] = biological target: LP7* (aa523-909) (human; Llama glama); test: ELISA, mAb immobilised, c-Met chimera titrated (EC50 of the chimera)
[4] = biological target: Ll9 (aa572-909) (human; Llama glama); test: as above
[5] = biological target: Ll8 (aa540-909) (human; Llama glama); test: as above
[6] = biological target: LP6 (aa497-909) (human; Llama glama); test: as above
[7] = biological target: Ll10 (aa608-909) (human; Llama glama); test: as above
[8] = biological target: Ll11 (aa634-909) (human; Llama glama); test: as above
[9] = biological target: T3, llama c-Met ECD (aa 25-932), His tag (Llama glama); test: ELISA, 200 ng immobilised c-Met protein
T3 construct: also called Llama glama c-Met
T3 chain: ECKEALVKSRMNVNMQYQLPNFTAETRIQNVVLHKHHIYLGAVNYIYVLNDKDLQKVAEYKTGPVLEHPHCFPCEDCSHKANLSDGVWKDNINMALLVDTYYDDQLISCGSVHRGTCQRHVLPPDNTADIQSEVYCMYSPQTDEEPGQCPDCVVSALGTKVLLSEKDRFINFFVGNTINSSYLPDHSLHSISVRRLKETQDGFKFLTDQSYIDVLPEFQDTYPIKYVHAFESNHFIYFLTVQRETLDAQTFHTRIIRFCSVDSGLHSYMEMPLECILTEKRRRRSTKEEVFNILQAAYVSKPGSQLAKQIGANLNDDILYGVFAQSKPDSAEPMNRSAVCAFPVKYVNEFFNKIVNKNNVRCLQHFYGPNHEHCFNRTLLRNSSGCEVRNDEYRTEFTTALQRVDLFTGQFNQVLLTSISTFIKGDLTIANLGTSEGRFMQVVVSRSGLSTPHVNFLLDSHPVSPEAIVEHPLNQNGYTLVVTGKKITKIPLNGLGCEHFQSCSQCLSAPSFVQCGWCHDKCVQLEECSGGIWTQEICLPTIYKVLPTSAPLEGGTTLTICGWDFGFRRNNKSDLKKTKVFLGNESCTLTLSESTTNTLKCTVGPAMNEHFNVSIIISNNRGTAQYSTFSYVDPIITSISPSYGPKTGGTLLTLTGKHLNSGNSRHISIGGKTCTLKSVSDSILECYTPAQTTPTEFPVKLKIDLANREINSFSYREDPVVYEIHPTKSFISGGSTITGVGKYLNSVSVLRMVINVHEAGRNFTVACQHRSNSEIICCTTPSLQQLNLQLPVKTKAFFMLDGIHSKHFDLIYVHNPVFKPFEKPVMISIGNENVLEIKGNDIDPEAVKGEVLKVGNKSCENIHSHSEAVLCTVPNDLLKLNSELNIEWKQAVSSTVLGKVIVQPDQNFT

[10] = biological target: human c-Met on cells (MKN-45, A549, HPAF, BxPC3, NCI-H441) (human, UniProt P08581 25-1390); test: cell-based or functional assay
[11] = biological target: LS3 (aa1-287) (Llama glama; human) (UniProt P08581); test: ELISA, mAb immobilised, c-Met chimera titrated (EC50 of the chimera)
[12] = biological target: LS4 (aa1-348) (Llama glama; human) (UniProt P08581); test: as above
[13] = biological target: LS2 (aa1-199) (Llama glama; human) (UniProt P08581); test: as above
[14] = biological target: LS5 (aa1-448) (Llama glama; human) (UniProt P08581); test: as above

- EC50 [1]: 0.068 µg/mL
- binding result [2]: binds
- EC50 [3]: 0.055 µg/mL
- EC50 [4]: 0.047 µg/mL
- EC50 [5]: 0.047 µg/mL
- EC50 [6]: 0.05 µg/mL
- EC50 [7]: 0.047 µg/mL
- EC50 [8]: 0.045 µg/mL
- binding result [9]: no binding
- ADCC, specific lysis of MKN-45 cells, EC50 [10]: 0.005 µg/mL
- antibody-induced proliferation of BxPC3 cells, percentage of the proliferation obtained with 75 ng/ml HGF [10]: < 20%
B1: 36C4 (antibody, V domains shown)
VH: QVQLVESGPGLVKPSQTLSLTCAVSGGSITTNYYYWSWIRQSPGKGLEWMGVIAYDGSTDYSPSLKSRTSISRDTSKNQFSLQLSSVTPEDTAVYYCARDVRVIATGWATANALDAWGQGTLVTVSS
VL: QSVLTQPPSVSGSPGKTVTISCAGTSSDVGYGNYVSWYQQLPGTAPKLLIFAVSYRASGIPDRFSGSKSGNTAFLTISGLQSEDEADYYCASYRSSNNAAVFGGGTHLTVL
notes: also called mAb 36C4; SIMPLE antibody 36C4

- ADCC, 51Cr release assay on NCI-H441 cells, EC50 [10]: 0.04 µg/mL
- ADCC, 51Cr release, lysis of NCI-H441 cells, IC50 [10]: 0.00013 µg/mL
B2: Potelligent 36C4 (antibody, V domains shown)
VH: B1 VH
VL: B1 VL
modifications: defucosylated (produced in Potelligent CHO cells)

- ADCC, 51Cr release assay on NCI-H441 cells, EC50 [10]: 0.26 µg/mL
B3: 36C4E (antibody, V domains shown)
VH: B1 VH
VL: B1 VL

- ADCC, specific lysis of MKN-45 cells, EC50 [10]: 0.0028 µg/mL
B4: chimeric 224G11 (antibody, human IgG1, V domains shown)
VH: EVQLQQSGPELVKPGASVKISCKTSGYIFTAYTMHWVRQSLGESLDWIGGIKPNNGLANYNQKFKGKATLTVDKSSSTAYMDLRSLTSEDSAVYYCARSEITTEFDYWGQGTALTVSS
VL: DIVLTQSPASLAVSLGQRATISCRASESVDSYANSFMHWYQQKPGQPPKLLIYRASNLESGIPARFSGSGSRTDFTLTINPVEADDVATYYCQQSKEDPLTFGSGTKLEMK

- ADCC, specific lysis of MKN-45 cells, EC50 [10]: 0.0046 µg/mL
- antibody-induced proliferation of BxPC3 cells, percentage of the proliferation obtained with 75 ng/ml HGF [10]: < 20%
B5: 40B8 (antibody, V domains shown)
VH: EVQLVQPGAELRNPGASVKVSCKASGYTFTNYVIDWVRQAPGQGLEWMGRIDPENGGTRYAQKFQGRVTFTADTSTSTAYVELSNLRSEDTAVYYCARLEDYELAYDYWGQGTQVTVSS
VL: DIVMTQTPSSVTASAGEKVTINCKSSQSVLLSSNQKNYLAWYQQRLGQSPRLLIYWASTRESGVPDRFSGSGSTTDFTLTISSFQPEDAAVYYCQQGVSFPLTFGQGTKVELK

- binding result [9]: no binding
B6: 13E6 (antibody, V domains shown)
VH: QVQLQESGGDLVQPGGSLRLSCAASGFTFDDYVMNWVRQAPGKGLEWISAINWNGGSTYYAESMKGRFTISRDNAKNTLYLQMYSLQSDDTAVYYCVKDTVVSGNGYWGQGTQVTVSS
VL: QSVLTQPPSVSGTLGKTVTISCAGTSSDIGDYNYVSWYQQLPGTAPKLLIYDVNKRASGIPDRFSGSKSGNTASLSISGLQSEDEADYYCASYRSRNDYAFGGGTKLTVL
notes: also called mAb 13E6

- antibody-induced proliferation of BxPC3 cells, percentage of the proliferation obtained with 75 ng/ml HGF [10]: < 20%
B7: 38H10 (antibody, V domains shown)
VH: EVQLVQPGVELRNPGASVKVSCKASGYIFTMNSIDWVRQAPGQGLEWMGRIDPEDGGTKYAQKFQGRVTFTADTSTSTAYVELNSLRSEDTAVYYCARVDDYYLGYDYWGQGTQVTVSS
VL: EIVMTQSPSSVTASAGEKVTINCKSSQSVLWRSNQKNYLAWYQQRLGQSPRLLISWASIRESGVPDRFSGSGSTTDFTLTISSFQPEDAAVYYCQQGYSFPYTFGSGTRLEIK

- EC50 [11]: 0.05 µg/mL
- EC50 [4]: > 0.04 µg/mL
- EC50 [12]: 0.07 µg/mL
- EC50 [5]: > 0.04 µg/mL
- EC50 [7]: > 0.04 µg/mL
- EC50 [8]: 0.042 µg/mL
- EC50 [13]: 0.034 µg/mL
- EC50 [14]: 0.05 µg/mL
- ADCC, specific lysis of MKN-45 cells, EC50 [10]: 0.0043 µg/mL
B8: 48A2 (antibody, V domains shown)
VH: B7 VH
VL: DIVMTQTPTSVTASAGDKVTINCKSSQSVLFSSNQKNYLAWYQQRLGQSPRLLIYWASIRESGVPDRFSGSGSATDFTLTISNFQPEDAAVYYCQQGYSFPYSFGSGTRLEIR
